Residue numbers refer to the chain shown, from its start.

Assay [1] addresses T1, human WISE (human, UniProt Q6X4U4 24-206).
T1 construct: Recombinant, made in E. coli or mammalian cells; biotinylated in the ELISAs, amine-coupled to CM5 in Biacore; also called huWise; huWISE
T1 sequence: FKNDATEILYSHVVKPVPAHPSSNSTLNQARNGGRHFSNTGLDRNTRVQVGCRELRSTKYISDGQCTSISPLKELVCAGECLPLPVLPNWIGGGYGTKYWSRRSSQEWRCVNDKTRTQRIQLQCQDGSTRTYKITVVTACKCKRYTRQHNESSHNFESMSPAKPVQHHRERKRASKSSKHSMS
The assay is described as follows: KinExA solution equilibrium, rhuWise-coated azlactone beads. The procedure:
(§1) Binding of muAbs with rhuWise and rmuWise were tested on KinExA. Azlactone beads (Pierce) was pre-coated with rhuWise/rmuWise at pH9.0 and blocked with ethanolamine, then further washed with sample buffer (0.1 mg/mL Heparin in BSA/P20/PBS solution). 10 pM and 100 pM of Ab-A, Ab-C and Ab-E were incubated with various concentrations (0.1 pM-3 nM) of rhuWise/rmuWise at room temperature for at least 10 hours before run through the rhuWise/rmuWise coated beads.
(§2) The amount of the bead-bound muAbs were quantified by fluorescent (Cy5) labeled goat anti-mouse IgG (H+L) antibody (Jackson Immuno Research). The binding signal is proportional to the concentration of free muAbs at binding equilibrium. Equilibrium dissociation constant (Kd) was obtained from nonlinear regression of the competition curves using a two-curve one-site homogeneous binding model (KinExA™ Pro software).
(In general: In KinExA the mixture passes briefly over coated beads that capture the unbound partner.)

For a further assay, the target named is T2, mouse WISE (mouse, UniProt Q9CQN4 24-206).
T2 construct: Recombinant purified protein; also called muWISE; mWISE
T2 sequence: T1 sequence with N39S, T46S, M159V, V165A, M182L
The assay is described as follows: KinExA solution equilibrium, rmuWise-coated beads. The procedure:
as §1, §2

In assay [2] the target is T3, T49 tryptic fragment of human WISE (human).
T3 construct: Multiply truncated human WISE from tryptic digestion, isolated by HPLC; the two pieces are held together by cystine-knot disulfide bonds (C1-C5, C2-C6, C3-C7); also called T49 peptide
The assay is described as follows: Biacore peptide competition, 3 nM antibody preincubated with 30 nM peptide. The procedure: (§3) To identify which peptides compete with WISE for binding to the antibodies of the invention, rhuWise was immobilized on a CM5 surface with high density. 3 nM of mature antibodies Ab-A, Ab-C and Ab-E were pre-incubated with and without 30 nM peptides and huWise (as control), then injected over the huWise surfaces. As shown in FIGS. 9A and B both T49 and T56.1 peptides blocked the binding of the antibodies to huWISE.
Background: Surface plasmon resonance follows binding to a sensor surface in real time, without labels.

In assay [3] the target is T4, T56.1 tryptic fragment of human WISE (human).
T4 construct: Multiply truncated human WISE from tryptic digestion, isolated by HPLC; the two pieces are held together by cystine-knot disulfide bonds; also called T56.1 peptide
The assay is described as above. The procedure: as §3

The target of assay [4] is T1, human WISE. The assay is described as follows: ELISA, antibody coated, biotinylated human WISE titrated. (An ELISA detects its analyte on a solid surface through an enzyme-linked reagent.)
Assay [5] deals with T1, human WISE. The assay is described as follows: assay not specified (IgG2 from transient transfection).
Assay [6] deals with T3, T49 tryptic fragment of human WISE. The assay is described as follows: Biacore peptide competition (FIG. 9B). The procedure: as §3
For assay [7], the target named is T4, T56.1 tryptic fragment of human WISE. The assay is described as follows: Biacore peptide competition (FIG. 9B). The procedure: as §3

B1: Ab-C (antibody, V domains shown)
VH: QGQMQQSGAELVKPGASVQLSCKTSGFTFSSTYISWLKQKPGQSLEWIAWIYAGTGGTRYNRKFTGKAQLTVDTSSSTAYMQFSSLTTEDSAIYYCAREGVDGWFTYWGQGTLVTVSA
VL: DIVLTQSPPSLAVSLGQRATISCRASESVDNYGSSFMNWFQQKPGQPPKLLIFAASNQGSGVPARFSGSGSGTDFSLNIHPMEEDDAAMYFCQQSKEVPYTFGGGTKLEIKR
notes: Murine monoclonal antibody from hybridoma, tested in its mature form; also called Antibody C; antibody C
Turning to B1, in the assay with human WISE [1], the equilibrium dissociation constant (Kd) (commonly a measure of binding affinity in units of concentration) was roughly 4 pM. Also, the binding result (in the assay with mouse WISE; in assay [2]; in assay [3]) was “binds” in each case.

B2: Ab-E (antibody, mouse IgG1, kappa, V domains shown)
VH: B1 VH with Q19K, S30N, T32H, S44T, R62Q
VL: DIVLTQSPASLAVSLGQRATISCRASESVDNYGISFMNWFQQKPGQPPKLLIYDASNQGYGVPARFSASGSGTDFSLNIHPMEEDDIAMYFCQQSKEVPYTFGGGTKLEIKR
notes: Murine monoclonal antibody from hybridoma, tested in its mature form; polypeptide numbers 26 and 28 and the light/heavy assignment are inferred; also called Antibody E; antibody E
The molecule B2 had a Kd with human WISE [1] of roughly 18 pM. For the same molecule, the binding result (in the assay with mouse WISE; in assay [2]; in assay [3]) was “binds” each time.

B3: Ab-D (antibody, V domains shown)
VH: QVQLVQSGAEVKKPGSSVKVSCKASGGTFSSTYISWVRQAPGQGLEWMGWIYAGTGGTRYNRKFTGRVTITADESTSTAYMELSSLRSEDTAVYYCAREGVDGWFTYWGQGTLVTVSS
VL: DIQMTQSPSSLSASVGDRVTISCRASESVDNYGSSFMNWYQQKPGKAPKLLIYAASNQGSGVPSRFSGSGSGTDFTLTISSLQPEDFATYYCQQSKEVPYTFGQGTKLEIKR
notes: Humanized Ab-C, human kappa / human IgG2
For the molecule B3, in the assay with human WISE [4], the binding result was “binds”.

B4: light chain of SEQ ID NO: 116 paired with the heavy chain of SEQ ID NO: 24 (antibody, human IgG2, kappa, V domains shown)
VH: B3 VH
VL: DIQMTQSPSSLSASVGDRVTITCRASRDISVYVNWYQLKPGQAPRLLIYGASNLGFGVPSRFSGSGYGTDFALTISGLQPEDFATYSCQQSYSIPLTFGQGTRVDTKR
In the case of B4, in the assay with human WISE [5], the binding result is “binds”.

B5: light chain of SEQ ID NO: 120 paired with the heavy chain of SEQ ID NO: 24 (antibody, human IgG2, kappa, V domains shown)
VH: B3 VH
VL: DIQMTQSPATLSLSPGERATLSCRASRSVSSNLAWYQQKPGRAPRLLMFGASTRATGVPARFSGSGSGTEFTLTISSLQSEDVATYYCQHDNELPLTFGGGTKVELKR
Regarding B5, the binding result with human WISE [5] is reported as “binds”.

B6: Ab-O (antibody, human IgG2, V domains shown)
VH: B3 VH
VL: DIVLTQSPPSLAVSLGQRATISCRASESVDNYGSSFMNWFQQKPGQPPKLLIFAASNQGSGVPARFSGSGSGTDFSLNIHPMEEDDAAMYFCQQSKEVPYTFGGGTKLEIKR
notes: Human IgG2 heavy chain
Turning to B6, the binding result in the assay with human WISE [4] is on record as “binds”.

B7: Ab-P (antibody, V domains shown)
VH: EVRLVESGGGLVQPGRSLKLSCAASGFPFSNYGMAWVRQAPTRGLEWVASITYDGSITFYRDSVKGRFTISRDNAKSTLYLQMDSLRSEDTATYYCTSSDTTDYYHGGFWFAYWGQGTLVTVSS
VL: DIVLTQSPALAVSLGQRATLSCRASQSVSISGHNLMHWYQQKPGQQPKLLIYRASNLPSGIPARFSGSGSGTGFTLTINPVQADDIATYYCQQSRESPWTFGGGTTLELKR
notes: also called Antibody P
Regarding B7, the binding result in assay [6] and in assay [7] was “binds” in each case.

B8: Ab-A (antibody, V domains shown)
VH: QIHLVQSGPELKKPGETVKISCKASGFSFTTYGMSWVKQAPGKGLKWMGWINTYSGVPTYADDFKGRFAFSLETSASTAYLQINNLKNEDTATYFCVRGREYYYGSGIAFWGQGTLVTVSA
VL: DVVMTQTPLSLPVSLGDQASISCRSSQSLEHSNGNTYLHWYLQKPGQSPKLLIYKVSNRFSGVPDRFSGSGSGTDFTLKISRVEAEDLGVYFCSQSTHVPLTFGAGTKVELKR
notes: Murine monoclonal antibody from hybridoma, tested in its mature form; The entries may still carry a signal peptide; also called Antibody A; antibody A
On to B8, for which the Kd with human WISE [1] is roughly 2 pM. The binding result (with mouse WISE; in assay [2]; in assay [3]) was “binds” each time.

B9: Ab-B (antibody, V domains shown)
VH: QVQLVQSGAEVKKPGASVKVSCKASGYTFTTYGMSWVRQAPGQGLEWMGWINTYSGVPTYADDFKGRFVFSLDTSVSTAYLQINSLKAEDTAVYYCARGREYYYGSGIAFWGQGTLVTVSS
VL: B8 VL with T7S, S14T, D17Q, Q18P, K50Q, L88V, A105G, L111I
notes: Humanized Ab-A, human kappa / human IgG2
For the molecule B9, the binding result with human WISE [4] was “binds”.

B10: Ab-G (antibody, human IgG2, kappa, V domains shown)
VH: B9 VH with R38K, Y95F, A97V
VL: B8 VL with T7S, S14T, D17Q, Q18P, K50Q, L88V, A105G, L111I
notes: as for B9
For B10, the binding result in the assay with human WISE [4] is recorded as “binds”.

The values are drawn from patent US20090130114A1 (Amgen, published 2009).
